In article PMC7190724, “Improved GPCR ligands from nanobody tethering” (Nature Communications, 2020):

Target: PTHR1_(YFPΔECD)

cAMP response (cAMP-activated luciferase luminescence) at the highest concentration tested, 100 nM, against the maximal response observed; precise EC50 could not be obtained (% of the maximal response): 40
Substance: VHHGFP-PTH(1-9)
